Experimental data published in article PMC8857464.

Substrate: C[C@H](N)C(=O)O
Experiment: purified protein
Conditions: nonoxidized enzyme (no H2O2), amino acid activation, 2 mM ATP, 2 mM PPi, 10 mM MgCl2, pH 7.2, 37 °C

B1: AlaRS (Escherichia coli K-12) (protein)
chain: SKSTAEIRQAFLDFFHSKGHQVVASSSLVPHNDPTLLFTNAGMNQFKDVFLGLDKRNYSRATTSQRCVRAGGKHNDLENVGYTARHHTFFEMLGNFSFGDYFKHDAIQFAWELLTSEKWFALPKERLWVTVYESDDEAYEIWEKEVGIPRERIIRIGDNKGAPYASDNFWQMGDTGPCGPCTEIFYDHGDHIWGGPPGSPEEDGDRYIEIWNIVFMQFNRQADGTMEPLPKPSVDTGMGLERIAAVLQHVNSNYDIDLFRTLIQAVAKVTGATDLSNKSLRVIADHIRSCAFLIADGVMPSNENRGYVLRRIIRRAVRHGNMLGAKETFFYKLVGPLIDVMGSAGEDLKRQQAQVEQVLKTEEEQFARTLERGLALLDEELAKLSGDTLDGETAFRLYDTYGFPVDLTADVCRERNIKVDEAGFEAAMEEQRRRAREASGFGADYNAMIRVDSASEFKGYDHLELNGKVTALFVDGKAVDAINAGQEAVVVLDQTPFYAESGGQVGDKGELKGANFSFAVEDTQKYGQAIGHIGKLAAGSLKVGDAVQADVDEARRARIRLNHSATHLMHAALRQVLGTHVSQKGSLVNDKVLRFDFSHNEAMKPEEIRAVEDLVNTQIRRNLPIETNIMDLEAAKAKGAMALFGEKYDERVRVLSMGDFSTELCGGTHASRTGDIGLFRIISESGTAAGVRRIEAVTGEGAIATVHADSDRLSEVAHLLKGDSNNLADKVRSVLERTRQLEKELQQLKEQAAAQESANLSSKAIDVNGVKLLVSELSGVEPKMLRTMVDDLKNQLGSTIIVLATVVEGKVSLIAGVSKDVTDRVKAGELIGMVAQQVGGKGGGRPDMAQAGGTDAAALPAALASVKGWVSAKLQ
  Km: 329 ± 84.6 µM
  kcat: 16 s⁻¹
  kcat/Km: 48300 M⁻¹ s⁻¹
